# T1: Recombinant human FAP (fibroblast activation protein) (human, UniProt Q12884 26-760)
# T1 sequence (looked up): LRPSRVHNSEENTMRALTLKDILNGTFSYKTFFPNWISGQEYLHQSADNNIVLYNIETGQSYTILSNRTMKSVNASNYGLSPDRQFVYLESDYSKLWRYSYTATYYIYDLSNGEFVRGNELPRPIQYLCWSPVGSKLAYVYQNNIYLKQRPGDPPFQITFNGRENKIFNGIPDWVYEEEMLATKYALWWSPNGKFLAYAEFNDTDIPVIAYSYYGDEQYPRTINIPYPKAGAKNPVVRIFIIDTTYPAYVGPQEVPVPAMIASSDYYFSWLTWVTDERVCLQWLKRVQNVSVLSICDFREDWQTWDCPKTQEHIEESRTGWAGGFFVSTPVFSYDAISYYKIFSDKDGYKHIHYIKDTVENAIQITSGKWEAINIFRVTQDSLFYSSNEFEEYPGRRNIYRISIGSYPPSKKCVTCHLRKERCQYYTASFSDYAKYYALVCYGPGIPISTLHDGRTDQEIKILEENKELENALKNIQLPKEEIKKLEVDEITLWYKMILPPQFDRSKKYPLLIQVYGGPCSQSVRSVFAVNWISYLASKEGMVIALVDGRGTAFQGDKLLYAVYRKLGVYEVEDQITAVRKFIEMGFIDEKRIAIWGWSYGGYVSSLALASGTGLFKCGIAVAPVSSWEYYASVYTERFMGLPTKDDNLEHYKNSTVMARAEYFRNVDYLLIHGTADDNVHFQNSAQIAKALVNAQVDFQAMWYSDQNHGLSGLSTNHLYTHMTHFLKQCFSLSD
# T2: Human FAP expressed on the cell surface (WI38, CHO-FAP1.9, U87MG cells) (human, UniProt Q12884 1-760)
# T2 construct: whole, on cells; Endogenous on WI38 and U87MG cells; from a human FAP cDNA (OriGene) in CHO-FAP1.9 cells; also called hFAP; FAP+ cells
# T2 sequence (looked up): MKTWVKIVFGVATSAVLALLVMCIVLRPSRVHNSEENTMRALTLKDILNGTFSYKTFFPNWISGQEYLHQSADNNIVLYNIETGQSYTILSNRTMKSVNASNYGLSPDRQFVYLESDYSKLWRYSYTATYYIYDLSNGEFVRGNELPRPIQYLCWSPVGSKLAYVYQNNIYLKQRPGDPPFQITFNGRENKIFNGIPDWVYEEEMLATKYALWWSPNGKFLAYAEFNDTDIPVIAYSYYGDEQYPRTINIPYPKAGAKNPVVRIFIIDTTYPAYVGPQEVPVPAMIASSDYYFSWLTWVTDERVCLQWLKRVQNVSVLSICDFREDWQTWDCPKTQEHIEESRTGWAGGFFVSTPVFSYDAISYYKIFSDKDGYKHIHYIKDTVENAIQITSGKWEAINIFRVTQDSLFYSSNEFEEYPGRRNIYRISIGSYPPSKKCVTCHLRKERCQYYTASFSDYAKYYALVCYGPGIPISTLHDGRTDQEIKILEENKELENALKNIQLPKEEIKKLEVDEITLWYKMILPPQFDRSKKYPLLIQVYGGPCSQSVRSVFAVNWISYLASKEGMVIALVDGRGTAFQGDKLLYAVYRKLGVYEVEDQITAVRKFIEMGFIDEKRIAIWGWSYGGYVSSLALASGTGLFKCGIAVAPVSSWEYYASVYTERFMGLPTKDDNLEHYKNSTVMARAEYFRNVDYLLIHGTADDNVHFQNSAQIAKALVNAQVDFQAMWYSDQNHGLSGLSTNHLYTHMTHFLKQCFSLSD
# Columns and labels:
# [1] = molecular target: T1, Recombinant human FAP (fibroblast …); test: cell-based or functional assay
# [2] = molecular target: T2, Human FAP expressed on the cell surface …; test: FACS on FAP-expressing WI38 cells, Penta-His AF647 detection
# Procedure: Using multi-well plates, 20,000 WI38 cells were added per well in 50 μl of PBS. 50 μl of appropriate dilutions (2× dilution steps) of ankyrin repeat protein was then added to the cells and incubated for 30 minutes on ice. After the ankyrin repeat protein-binding reaction, cells were washed twice with PBS. Direct immunofluorescent detection of the His-tagged ankyrin repeat proteins using Penta-His AF647 conjugate (QIAgen) and determination of live cells using LIVE/DEAD™ Fixable Green Dead Cell Stain Kit (ThermoFisher) were then performed together in one step. The Penta-His AF647 conjugate and the LIVE/DEAD™ Fixable Green dye were applied to the cells together in 1/200 (Penta-His) and 1/1000 (LID Fixable) final dilutions and incubated for 20-30 minutes on ice. After washing the cells with PBS, cells were re-suspended in 1× CellFix™ buffer (BD Biosciences) (10× stock was diluted 1/10 in water). The samples were incubated in CellFix™ buffer for 15-20 minutes at RT, then spun down at 400 g for 5 min. Supernatant was discarded and cells were re-suspended in 200 μl PBS and stored at 4° C. until acquisition and FACS analysis. Acquisition and FACS analysis, including the determination of median fluorescence intensity (MFI), were done within 5 days after staining using an AttuneNxT instrument. Binding curves were fitted by non-linear regression curve fitting using GraphPad Prism software (v 7.0.4).
# EC₅₀ values were determined using standard procedures known to the person skilled in the art. […] Table 2 provides the EC₅₀ values of selected ankyrin repeat proteins as examples.
# [3] = molecular target: T1, Recombinant human FAP (fibroblast …); test: SPR (ProteOn), human FAP immobilized on GLC chip
# Procedure: Briefly, human FAP was diluted in 10 mM Na-acetate pH 5.3 buffer and covalently immobilized on a GLC chip (BioRad) to a level of around 2000 resonance units (RU). The interaction of ankyrin repeat protein and hFAP was then measured by injecting 200 μl running buffer (PBS, pH 7.4 containing 0.005% Tween 20®) containing serial dilutions of ankyrin repeat proteins covering a concentration range between 30 nM and 0.5 nM (on-rate measurement), followed by a running buffer flow for at least 25 minutes at a constant flow rate of 100 μl/min (off-rate measurement). The regeneration was performed using 15 μl of 10 mM Glycine pH 2 followed by 15 μl of 124 mM H₃PO₄. The signals (i.e. resonance unit (RU) values) of the interspots and a reference injection (i.e. injection of running buffer only) were subtracted from the RU traces obtained after injection of ankyrin repeat protein (double-referencing). Based on the SPR traces obtained from the on-rate and off-rate measurements, the on- and off-rate of the corresponding ankyrin repeat protein—FAP interaction was determined.
# Dissociation constants (KD) were calculated from the estimated on- and off-rates using standard procedures known to the person skilled in the art. […] Table 1 provides the KD values of some selected ankyrin repeat proteins as examples.
Binder,FAP activity (%) [1] [%],EC50 [2] [nM],Kd [3] [nM]
DARPin® protein #5 (designed binder) MRGSHHHHHHGSYPYDVPDYAGSDLGYTLLEAARRGQDDEVRELLKAGADVNAKDTIGYTPLHYAAQVGHLEIVEVLLKAGADVNAKDTQGITPLHVAAATGHLEIVEVLLKAGADVNAQDSKGRTPADLAAEQGHEDIAEVLQKLN,103,0.654,
DARPin® protein #25 (designed binder) MRGSHHHHHHGSYPYDVPDYAGSDLGYKLLEAARRGQDDEVRELLKAGADVNAKDVIGYTPLHYAASEGHLEIVEVLLKAGADVNAKDTKGITPLHVAASTGHLEIVEVLLKAGADVNAQDLRGYTPADLAARQGHEDIGEVLQKLN,110,,
DARPin® protein #12 (designed binder) MRGSHHHHHHGSYPYDVPDYAGSDLGKKLLEAARAGQDDEVRILLAAGADVSAKDQWGWTPLHLAARVGHLEIVEVLLKAGADVNAKDVRGVTPLHLAAFHGHLEIVEVLLKAGADVNAKDYAGHTPLHLAAWQGHLEIIEDLLKAGADVNAQDKSGKTPADLAADAGHEDIAEVLQKLN,114,0.789,0.194
DARPin® protein #1 (designed binder) MRGSHHHHHHGSYPYDVPDYAGSDLGKKLLEAARAGQDDEVRILLAAGADVNAKDQYGITPLHLAAFRGHLEIVEVLLKHGAGVNADDMDGRTPLHPAAYKGHLEIVEVLLKNGADVNAQDKFGKTAFDISIDNGNEDLAEILQKLN,115,3.17,3.6
DARPin® protein #10 (designed binder) MRGSHHHHHHGSYPYDVPDYAGSDLGKKLLEATRAGQDDEVRILLAAGADVNAKDEYGITPLHLAAFRGHLEIVEVLLKHGADVNAIDYNGRTPLHPAAYSGHLEIVEVLLKYGADVNAQDKFGKTAFDISIDNGNEDLAEILQKLN,120,0.512,10.4
DARPin® protein #13 (designed binder) MRGSHHHHHHGSYPYDVPDYAGSDLGKKLLEAARAGQDDEVRILLAAGADVNAKDDWGWTPLHLAARHGHLEIVEVLLKAGTDVNAKDKRGVTPLHLAAYIGHLEIAEVLLKAGADVNAKDFQGWTPLHLAAVRGHLEIVEVLLKAGADVNAQDKSGKTPADLAADAGHEDIAEVLQKLN,88,0.307,0.01
DARPin® protein #6 (designed binder) MRGSHHHHHHGSYPYDVPDYAGSDLGKKLLEAARAGQDDEVRELLKAGADVNAKDEWGKTPLHYAAALGHLEIVEVLLKAGADVNAKDQYGATPLHIAAFAGHLEIVEVLLKAGADVNAKDAWGFTPLHLAATRGHLEIVEVLLKAGADVNAQDKSGKTPADLAADAGHEDIVEVLQKLN,146,,0.303
DARPin® protein #31 (designed binder) MRGSHHHHHHGSYPYDVPDYAGSDLGKKLLEAARAGQDDEVRELLKAGADVNAKDEFGKTPLHLAAALGHLEIVEVLLKAGADVNAKGLWGETPLHVAAFAGHLEIVEVLLKAGADVNAKDTYGYTPLHLAASRGHLEIVEVLLKAGADVNAQDKSGKTPADLAADAGHEDIAEVLQKLN,123,,0.097
DARPin® protein #8 (designed binder) MRGSHHHHHHGSYPYDVPDYAGSDLGKKLLEAARAGQDDEVRELLKAGADVNAKDQHGKTPLHYAAALGHLEIVEVLLKAGADVNAKDRWGATPLHIAAFAGHLEIVEVLLKAGADVNAKDEVGWTPLHLAARFGHLEIVEVLLKAGADVNAQDKSGKTPADLAADAGHEDIVEVLQKLN,97,,0.12
DARPin® protein #11 (designed binder) MRGSHHHHHHGSYPYDVPDYAGSDLGKKLLEAARAGQDDEVRILLAAGADVNAKDTWGWTPLHLAAKSGHLEIVEVLLKAGADVNAKDYHGVTPLHLATFWGHLEIVEVLLKAGADVNAKDWYGETPLHLAAIRGHLEIVEVLLKAGADVNAQDKSGKTPADLAADAGHEDIAEVLQKLN,117,0.523,0.057
DARPin® protein #16 (designed binder) MRGSHHHHHHGSYPYDVPDYAGSDLGKKLLEAARAGQDDEVRILMANGTDVNATDMTGRTPLHLAALYGHLEIVEVLLKYGADVNALDKFGITPLHLAAFMGHLEIVEVLLKYGADVNAADLDGRTPLHPTAYRGHLEIVEVLLKNGADVNAQDKFGKTAFDISIDNGNEDLAEILQKLN,97,,0.023
DARPin® protein #20 (designed binder) MRGSHHHHHHGSYPYDVPDYAGSDLGEKLLIAALFGQDEEVRILLAAGADVNAKDEWGHTPLHKAALSGHLEIVEVLLKAGADVNAKDQKGSTPLHWAATRGHLEIVEVLLKAGADVNAQDHIGRTPADLAANFGHEDIAEVLQKLN,104,,0.115
DARPin® protein #17 (designed binder) MRGSHHHHHHGSYPYDVPDYAGSDLGKKLLEAARAGQDDEVRILMANGADVNATDLMGRTPLHLAASRGHLEIVEVLLKNGADVNADDKYGITSLHLAAFLGHLEIVEVLLKYGADVNAIDFDGRTPLHPAAYRGHLEIVEVLLKHGADVNAQDKFGQTAFDISIDNGNEDLAEILQKLN,96,,0.063

# From patent publication US20220242973A1 (Molecular Partners, published 2022)
